Results from US5814466, “Method for assaying for a substance that affects an SH2-phosphoraylated ligand regulatory system” (Mount Sinai Hospital Corporation, dated 1998).

Columns and labels:
[1] = biological target: T1, PDGF receptor from BB-PDGF-stimulated Rat-2 cells (activated PDGF-R) (rat (endogenous protein of Rat-2 cells), UniProt Q05030, phosphotyrosine (after stimulation with 75 nM BB-PDGF; sites not stated)); experiment: pull-down of immobilised TrpE fusion from lysate of PDGF-stimulated Rat-2 cells, immunoblot
Protocol: The following procedure was used to investigate binding of TryE fusion proteins that contain GAP, Src, or Crk SH2 domains to PDGF-R in lysates of stimulated Rat-2 cells. Serum-starved Rat-2 cells were stimulated for 5 min at 37° C. with 75 nM BB-PDGF, lysed, and mixed with the indicated immobilized TrpE bacterial fusion proteins. Complexes were washed, resolved on 7.5% SDS-polyacrylamide gels and analyzed by immunoblotting with anti-P.Tyr (8 hour exposure) or with anti-PDGF-R (18 hour exposure).
Because GAP also associates with the PDGF-R, experiments were carried out using bacterial GAP SH2 sequences (see FIG. 7). The GAP SH2[N] domain bound the PDGF-R in a lysate of PDGF-stimulated cells (FIG. 9), but not in unstimulated cells.

[2] = biological target: T1, PDGF receptor from BB-PDGF-stimulated …; experiment: pull-down from lysate of PDGF-stimulated Rat-2 PLCγ1 cells; competitor: overexpressed cellular PLCγ1
Excerpt: Only a minor fraction of activated PDGF-R complexes with PLCγ1 in vivo. A Rat-2 cell line was genetically modified to overexpress PLCγ1 by tenfold as compared with the endogenous enzyme (Rat-2 PLCγ1). There is a proportionate increase in the amount of PDGF-R precipitated with antibodies to PLCγ1 (anti-PLCγ1) after PDGF stimulation of Rat-2 PLCγ1 cells, in comparison with parental Rat-2 cells. If bacterial PLCγ1 SH2 domains bound to the same site(s) on the PDGF-R as did cellular PLCγ1, then overexpression of PLCγ1 should block binding of bacterial PLCγ1 SH2 domains to activated PDGF-R in vitro. To investigate this Rat-2 cells (FIG. 10, lanes 1, 2, 5 and 6) or a Rat-2 cell line that overexpressed PLCγ1 by tenfold (R2-PLCγ; lanes 3, 4, 7, 8) were stimulated with PDGF (lanes 1, 3, and 5–8) or maintained without PDGF (lanes 2 and 4). Cell lysates were mixed with immobilized TrpE-PLC-SH2[N] (lanes 1 to 4), TrpE-PLC-SH2[N+C] (lanes 5 and 7), or TrpE-GAP-SH2 [N+3+C] ([…]). Samples were washed, separated by gel electrophoresis, and immunoblotted with anti-P.Tyr. Similar results were obtained by blotting with anti-PDGF-R.

B1: TrpE-GAP-SH2[N+3+C] (other)
chain: MQTQKPTLELLTCEGAYRDNPTALFHQLCGDRPATLLLESADIDSKDDLKSLLLVDSALRITALGDTVTIQALSGNGEALLALLDNALPAGVESEQSPNCRVLRFPPVSPLLDEDARLCSLSVFDAFRLLQNLLNVPKEEREAMFFGGLFSYDLVAGFEDLPQLSAENNCPDFCFYLAETLMVIDHQKKSTRIQASLFAPNEEEKQRLTARLNELRQQLTEAAPPLPVVSVPHMRCECNQSDEEFGGVVRLLQKAIRAGEIFQVVPSRRFSLPCPSPLAAYYVLKKSNPSPYMFFMQDNDFTLFGASPESSLKYDATSRQIEITNQWYHGKLDRTIAEERLRQAGKSGSYLIRESDRRPGSFVLSFLSQMNVVNHFRIIAMCGDYYIGGRRFSSLSDLIGYYSHVSCLLKGEKLLYPVAPPEPVEDRRRVRAILPYTKVPDTDEISFLKGDMFIVHNELEDGWMWVTNLRTDEQGLIVEDLVEEVGREEDPHEGKIWFHGKISKQEAYNLLMTVGQVCSFLVRPSDNTPGDYSLYFRTNENIQRFKICPTPNNQFMMGGRYYNSIGDIIDHYRKEQIVEGYYLKEPVPMQD
fold more efficient binding than expected from the individual SH2 domains [1]: 3 fold

B2: TrpE-PLC-SH2[N+C] (other)
chain: MQTQKPTLELLTCEGAYRDNPTALFHQLCGDRPATLLLESADIDSKDDLKSLLLVDSALRITALGDTVTIQALSGNGEALLALLDNALPAGVESEQSPNCRVLRFPPVSPLLDEDARLCSLSVFDAFRLLQNLLNVPKEEREAMFFGGLFSYDLVAGFEDLPQLSAENNCPDFCFYLAETLMVIDHQKKSTRIQASLFAPNEEEKQRLTARLNELRQQLTEAAPPLPVVSVPHMRCECNQSDEEFGGVVRLLQKAIRAGEIFQVVPSRRFSLPCPSPLAAYYVLKKSNPSPYMFFMQDNDFTLFGASPESSLKYDATSRQIEIWFHGKLGAGRDGRHIAERLLTEYCIETGAPDGSFLVRESETFVGDYTLSFWRNGKVQHCRIHSRQDAGTPKFFLTDNLVFDSLYDLITHYQQVPLRCNEFEMRLSEPVPQTNAHESKEWYHASLTRAQAEHMLMRVPRDGAFLVRKRNEPNSYAISFRAEGKIKHCRVQQEGQTVMLGNSEFDSLVDLISYYEKHPLYRKMKLRYPI
PDGF-R associated, relative to parental PDGF-stimulated Rat-2 cells [2]: 0.33 fraction of the amount from parental Rat-2 cells

B3: TrpE-PLC-SH2[N] (other)
chain: MQTQKPTLELLTCEGAYRDNPTALFHQLCGDRPATLLLESADIDSKDDLKSLLLVDSALRITALGDTVTIQALSGNGEALLALLDNALPAGVESEQSPNCRVLRFPPVSPLLDEDARLCSLSVFDAFRLLQNLLNVPKEEREAMFFGGLFSYDLVAGFEDLPQLSAENNCPDFCFYLAETLMVIDHQKKSTRIQASLFAPNEEEKQRLTARLNELRQQLTEAAPPLPVVSVPHMRCECNQSDEEFGGVVRLLQKAIRAGEIFQVVPSRRFSLPCPSPLAAYYVLKKSNPSPYMFFMQDNDFTLFGASPESSLKYDATSRQIEIWFHGKLGAGRDGRHIAERLLTEYCIETGAPDGSFLVRESETFVGDYTLSFWRNGKVQHCRIHSRQDAGTPKFFLTDNLVFDSLYDLITHYQQVPLRCNEFEMRLSEPV
PDGF-R associated, relative to parental PDGF-stimulated Rat-2 cells [2]: 0.33 fraction of the amount from parental Rat-2 cells
